We go through 9 molecules from patent US20250026827A1 (Alector, published 2025).

For assay [1], the target named is T1, mouse SIRPα on cells (mouse, UniProt P97797 32-513).
T1 construct: whole, on cells
T1 sequence (looked up): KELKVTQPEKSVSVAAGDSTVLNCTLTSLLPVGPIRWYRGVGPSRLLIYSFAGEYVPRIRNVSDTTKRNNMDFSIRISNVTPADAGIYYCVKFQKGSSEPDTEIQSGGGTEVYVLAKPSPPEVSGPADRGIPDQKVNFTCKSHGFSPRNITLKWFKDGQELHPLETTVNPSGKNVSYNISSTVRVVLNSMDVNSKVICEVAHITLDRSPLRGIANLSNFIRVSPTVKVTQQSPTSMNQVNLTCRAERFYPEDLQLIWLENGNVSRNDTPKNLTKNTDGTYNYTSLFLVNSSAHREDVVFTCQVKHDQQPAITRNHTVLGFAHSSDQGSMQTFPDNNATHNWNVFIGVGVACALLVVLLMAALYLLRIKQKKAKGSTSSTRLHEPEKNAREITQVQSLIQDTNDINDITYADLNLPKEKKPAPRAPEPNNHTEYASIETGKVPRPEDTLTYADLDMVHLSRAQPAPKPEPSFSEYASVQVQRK
The experiment in a line: flow cytometry.

Assay [2] addresses T2, human SIRPα on cells (human, UniProt P78324 31-504).
T2 construct: Whole entry
Description: flow cytometry. For orientation: In flow cytometry, cells or beads pass a laser one at a time.

In assay [3] the target is T3, mouse SIRPβ1 on CHO cells (mouse).
T3 construct: Whole entry
T3 chain: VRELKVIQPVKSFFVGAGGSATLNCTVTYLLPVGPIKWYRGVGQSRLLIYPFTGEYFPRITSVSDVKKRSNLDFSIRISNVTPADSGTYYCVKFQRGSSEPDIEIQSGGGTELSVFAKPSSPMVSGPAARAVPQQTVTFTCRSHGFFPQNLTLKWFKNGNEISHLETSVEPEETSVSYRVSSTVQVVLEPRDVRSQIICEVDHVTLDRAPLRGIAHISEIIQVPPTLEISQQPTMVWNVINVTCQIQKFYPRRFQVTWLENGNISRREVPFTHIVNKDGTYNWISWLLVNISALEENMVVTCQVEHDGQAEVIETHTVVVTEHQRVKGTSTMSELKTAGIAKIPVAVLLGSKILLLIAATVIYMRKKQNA
The experiment in a line: flow cytometry.

Assay [4] concerns the target T4, human SIRPα domain 1 (D1) Fc fusion (human, UniProt P78324 32-149).
T4 construct: also called human SIRPα D1-Fc; Human SIRPα Fc; not shown: C-terminal human IgG1 Fc
The experiment in a line: Octet. (In BLI a coated tip is dipped into the sample, and binding shifts an interference pattern.)

A further assay deals with T5, mouse SIRPα D1-Fc (mouse, UniProt P97797 32-150, limits assumed).
T5 construct: domain: D1
T5 sequence (looked up): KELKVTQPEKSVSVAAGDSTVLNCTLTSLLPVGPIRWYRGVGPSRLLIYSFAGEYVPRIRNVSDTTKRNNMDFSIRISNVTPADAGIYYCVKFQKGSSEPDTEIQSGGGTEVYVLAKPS
The experiment in a line: Octet.

Assay [5] addresses T6, human SIRPβ1 domain 1 (D1) Fc fusion (human, UniProt O00241 30-148).
T6 construct: Made in HEK293/T cells with a heterologous signal peptide; also called Human SIRPβ1 D1-Fc; Human SIRPβ1-Fc; not shown: C-terminal human IgG1 Fc
Description: Octet, IgG avid.

Assay [6] has as its target T7, human SIRPβ1 isoform 1 on cells (human, UniProt O00241 30-398).
T7 construct: On CHO cells (low level), on BWZ/BW5147.G.1.4 cells (reporter cells co-express human DAP12) or on primary human myeloid cells; also called huSIRPβ1; BWZ-huSIRPβ1
The experiment in a line: flow cytometry.
Description: (§1) Initial characterization of anti-SIRPβ1 antibodies involved determining their ability to bind cell lines expressing human or mouse SIRPβ1. Cells were harvested, plated at 10⁶/ml in a 96-well plate, washed, and incubated in 100 μl FACS buffer containing 1 μg/ml anti-SIRPβ1 antibody for 0.5 hour on ice. Cells were then washed twice and incubated in 100 μl FACS buffer containing 0.5 μg/ml PE-conjugated secondary antibody for 30 minutes on ice. Cells were washed twice in cold FACS buffer and acquired on a BD FACS Canto. Data analysis and calculation of mean fluorescence intensity (MFI) values or 00 positive cells was performed with FlowJo (TreeStar) software version 10.0.7.
(§2) As a negative control, the anti-SIRPβ1 antibodies were also screened for surface binding to CHO cells overexpressing recombinant mouse SIRPβ31. […] Given the high sequence similarity between receptors of the SIRPβ family, anti-SIRPβ1 antibodies were also screened for cross-reactivity to human and mouse SIRPα.

For assay [7], the target named is T1, mouse SIRPα on cells. The experiment in a line: flow cytometry. The source holds these as a separate data set.
Description: as §1, §2
Assay [8] addresses T2, human SIRPα on cells. Description: flow cytometry. This is another data set of the same source.
Description: as §1, §2
The target of assay [9] is T3, mouse SIRPβ1 on CHO cells. Description: flow cytometry.
Description: as §1, §2
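Wherever FOB is given: antibodies tested at 1 µg/ml for 30 min on ice against receptor-expressing cells, detected with a PE-labelled secondary antibody, read as mean fluorescence intensity relative to background.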

T7 sequence (O00241 30-398): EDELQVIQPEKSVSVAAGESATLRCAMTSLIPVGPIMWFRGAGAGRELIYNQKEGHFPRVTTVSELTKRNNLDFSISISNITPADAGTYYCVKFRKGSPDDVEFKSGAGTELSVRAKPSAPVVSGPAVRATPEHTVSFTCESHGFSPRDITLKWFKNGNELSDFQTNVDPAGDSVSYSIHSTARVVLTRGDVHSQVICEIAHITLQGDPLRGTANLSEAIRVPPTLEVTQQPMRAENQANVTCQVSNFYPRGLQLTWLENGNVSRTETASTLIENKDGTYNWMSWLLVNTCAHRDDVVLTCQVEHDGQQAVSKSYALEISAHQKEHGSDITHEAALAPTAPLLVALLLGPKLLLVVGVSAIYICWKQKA
T6 sequence (O00241 30-148 limits assumed): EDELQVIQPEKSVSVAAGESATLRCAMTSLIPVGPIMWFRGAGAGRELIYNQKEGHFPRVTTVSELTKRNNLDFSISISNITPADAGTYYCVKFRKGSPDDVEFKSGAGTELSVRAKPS

B1: SB-6 (antibody, V domains shown)
VH: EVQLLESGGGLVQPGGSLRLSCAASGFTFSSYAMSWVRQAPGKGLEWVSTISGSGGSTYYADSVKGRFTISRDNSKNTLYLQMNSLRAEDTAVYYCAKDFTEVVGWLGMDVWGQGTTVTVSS
VL: EIVLTQSPGTLSLSPGERATLSCRASQSVSSSYLAWYQQKPGQAPRLLIYGASSRATGIPDRFSGSGSGTDFTLTISRLEPEDFAVYYCQQSGHLPITFGGGTKVEIK
notes: IgG
As to B1, the binding result in the assay with mouse SIRPα on cells [1] is “no binding (tested: 1 ug/ml)”; in the assay with human SIRPα on cells [2], “no binding (tested: 1 ug/ml)”; in [3], “no binding (tested: 1 ug/ml)”; in assay [4], “no binding (tested: 100 nM)”; with mouse SIRPα D1-Fc, “no binding (tested: 100 nM)”. Binding in assay [5] was put at a Kd of 1.3 nM. Moreover, the FOB in assay [6] amounted to 4.3 fold over background; in the assay with mouse SIRPα on cells [7], 1 fold over background; with human SIRPα on cells [8] it was 1.2 fold over background; in assay [9], 1.2 fold over background.

B2: SB-28 (antibody, V domains shown)
VH: QLQLQESGPGLVKPSETLSLTCTVSGGSISSSSYYWGWIRQPPGKGLEWIGSISYSGSTYYNPSLKSRVTISVDTSKNQFSLKLSSVTAADTAVYYCARDPRDYSSGSSGGGWGYFDLWGRGTLVTVSS
VL: EIVLTQSPGTLSLSPGERATLSCRASQSVSSSYLAWYQQKPGQAPRLLIYGASSRATGIPDRFSGSGSGTDFTLTISRLEPEDFAVYYCQQDGNFPLTFGGGTKVEIK
notes: IgG
With B2, the binding result with mouse SIRPα on cells [1] was “no binding (tested: 1 ug/ml)”; with human SIRPα on cells [2] it was “no binding (tested: 1 ug/ml)”; in assay [3], “no binding (tested: 1 ug/ml)”; in assay [4], “no binding (tested: 100 nM)”; with mouse SIRPα D1-Fc, “no binding (tested: 100 nM)”. Further, the dissociation constant Kd in assay [5] was found to be 5.59 nM. Besides, the FOB in assay [6] is 4.1 fold over background; in the assay with mouse SIRPα on cells [7] it was 1 fold over background; with human SIRPα on cells [8], 2.1 fold over background; in assay [9], 1.2 fold over background.

B3: SB-17 (antibody, V domains shown)
VH: QVQLVQSGAEVKKPGASVKVSCKASGYTFTSYGISWVRQAPGQGLEWMGWISAYNGNTNYAQKLQGRVTMTTDTSTSTAYMELRSLRSDDTAVYYCARGPLLYGDYHVRYGMDVWGQGTTVTVSS
VL: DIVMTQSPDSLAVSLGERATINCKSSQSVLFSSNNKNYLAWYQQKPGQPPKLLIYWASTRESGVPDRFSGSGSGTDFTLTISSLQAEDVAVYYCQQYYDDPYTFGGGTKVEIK
notes: IgG
Turning to B3, the binding result with mouse SIRPα on cells [1] is listed as “no binding (tested: 1 ug/ml)”; in the assay with human SIRPα on cells [2], “no binding (tested: 1 ug/ml)”; in assay [3] it was “no binding (tested: 1 ug/ml)”; in assay [4], “no binding (tested: 100 nM)”; in the assay with mouse SIRPα D1-Fc, “no binding (tested: 100 nM)”. The same molecule had a Kd in [5] of 3.32 nM. Moreover, the FOB in assay [6] stood at 2.8 fold over background; with mouse SIRPα on cells [7], 1.6 fold over background; with human SIRPα on cells [8] it was 2.5 fold over background; in [9], 1.3 fold over background.

B4: SB-19 (antibody, V domains shown)
VH: QVQLVQSGAEVKKPGSSVKVSCKASGGTFSSYAISWVRQAPGQGLEWMGGIIPIFGTANYAQKFQGRVTITADESTSTAYMELSSLRSEDTAVYYCARDGGGGYAYEYFQHWGQGTLVTVSS
VL: not shown
notes: IgG
Consider B4, for which the binding result with mouse SIRPα on cells [1] is “no binding (tested: 1 ug/ml)”; with human SIRPα on cells [2], “no binding (tested: 1 ug/ml)”; in assay [3], “no binding (tested: 1 ug/ml)”; in [4] it was “no binding (tested: 100 nM)”; in the assay with mouse SIRPα D1-Fc, “no binding (tested: 100 nM)”. Binding in assay [5] was put at a Kd of 7.41 nM. Also, the FOB in [6] is 1.8 fold over background; with mouse SIRPα on cells [7], 0.9 fold over background; with human SIRPα on cells [8], 2.2 fold over background; in assay [9], 1.3 fold over background.

B5: SB-21 (antibody, V domains shown)
VH: QVQLVQSGAEVKKPGASVKVSCKASGYTFTSNGISWVRQAPGQGLEWMGWISAYNGNTNYAQKLQGRVTMTTDTSTSTAYMELRSLRSDDTAVYYCARVGNMDQEYFDLWGRGTLVTVSS
VL: not shown
notes: IgG
Turning to B5, the binding result is “no binding (tested: 1 ug/ml)” with mouse SIRPα on cells [1]; “no binding (tested: 1 ug/ml)” with human SIRPα on cells [2]; “no binding (tested: 1 ug/ml)” in [3]; “no binding (tested: 100 nM)” in assay [4]; “no binding (tested: 100 nM)” with mouse SIRPα D1-Fc. In addition, the Kd in [5] amounted to 5.86 nM. Besides, the FOB in assay [6] is 1.9 fold over background; in the assay with mouse SIRPα on cells [7], 1.2 fold over background; with human SIRPα on cells [8], 2 fold over background; in assay [9], 1.3 fold over background.

B6: SB-26 (antibody, V domains shown)
VH: QVQLVQSGAEVKKPGSSVKVSCKASGGTFSSYAISWVRQAPGQGLEWMGGIIPIFGTANYAQKFQGRVTITADESTSTAYMELSSLRSEDTAVYYCARDGSAGRQEHGMDVWGQGTTVTVSS
VL: not shown
notes: IgG
Consider B6, for which the binding result in the assay with mouse SIRPα on cells [1] is listed as “no binding (tested: 1 ug/ml)”; with human SIRPα on cells [2], “no binding (tested: 1 ug/ml)”; in assay [3], “no binding (tested: 1 ug/ml)”; in [4], “no binding (tested: 100 nM)”; with mouse SIRPα D1-Fc it was “no binding (tested: 100 nM)”. In [5], the dissociation constant (Kd) worked out at 6.17 nM. Besides, the FOB amounted to 2 fold over background in assay [6], 1.2 fold over background with mouse SIRPα on cells [7], 2.1 fold over background in the assay with human SIRPα on cells [8] and 1.3 fold over background in [9].

B7: SB-15 (antibody, V domains shown)
VH: QLQLQESGPGLVKPSETLSLTCTVSGGSISSNSYYWGWIRQPPGKGLEWIGSIYYSGSTYYNPSLKSRVTISVDTSKNQFSLKLSSVTAADTAVYYCAREVGAPPSYPFDIWGQGTMVTVSS
VL: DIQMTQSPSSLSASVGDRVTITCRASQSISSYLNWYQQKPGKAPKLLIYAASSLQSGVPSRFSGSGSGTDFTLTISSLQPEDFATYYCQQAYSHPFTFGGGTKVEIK
notes: IgG
Turning to B7, the binding result with mouse SIRPα on cells [1] is on record as “no binding (tested: 1 ug/ml)”; with human SIRPα on cells [2], “no binding (tested: 1 ug/ml)”; in assay [3] it was “no binding (tested: 1 ug/ml)”; in [4], “no binding (tested: 100 nM)”; in the assay with mouse SIRPα D1-Fc it was “no binding (tested: 100 nM)”. In assay [5], this molecule gave a Kd of 3.45 nM. Moreover, the FOB in assay [6] turned out to be 8 fold over background; with mouse SIRPα on cells [7], 1.4 fold over background; with human SIRPα on cells [8] it was 2.2 fold over background; in [9], 1.3 fold over background.

B8: SB-41 (antibody, V domains shown)
VH: QLQLQESGPGLVKPSETLSLTCTVSGGSISSSSYYWGWIRQPPGKGLEWIGSIYYSGSTYYNPSLKSRVTISVDTSKNQFSLKLSSVTAADTAVYYCARVGQYPIYGMDVWGQGTTVTVSS
VL: DIQMTQSPSSLSASVGDRVTITCQASQDITNYLNWYQQKPGKAPKLLIYDASNLETGVPSRFSGSGSGTDFTFTISSLQPEDIATYYCQQADNFPYTFGGGTKVEIK
notes: IgG
As for B8, the figures for the binding result (with mouse SIRPα on cells [1]; in assay [3]; with mouse SIRPα D1-Fc) were “no binding (tested: 1 ug/ml)”, “no binding (tested: 1 ug/ml)” and “no binding (tested: 100 nM)”, respectively. In assay [5], this molecule registered a Kd of 10.3 nM. Further, the FOB in [6] worked out at 1.7 fold over background; with mouse SIRPα on cells [7], 1.7 fold over background; with human SIRPα on cells [8] it was 2.2 fold over background; in assay [9], 1.3 fold over background.

B9: SB-49 (antibody, V domains shown)
VH: QLQLQESGPGLVKPSETLSLTCTVSGGSISSSDYYWGWIRQPPGKGLEWIGSIYYSGSTYYNPSLKSRVTISVDTSKNQFSLKLSSVTAADTAVYYCARGPTGYKDKWRYYYGMDVWGQGTTVTVSS
VL: DIQMTQSPSSLSASVGDRVTITCQASQDITNYLNWYQQKPGKAPKLLIYDASNLETGVPSRFSGSGSGTDFTFTISSLQPEDIATYYCQQYFHPPLTFGGGTKVEIK
notes: IgG
With B9, the binding result in the assay with mouse SIRPα on cells [1] is “no binding (tested: 1 ug/ml)”; in assay [3] it was “no binding (tested: 1 ug/ml)”; with mouse SIRPα D1-Fc it was “no binding (tested: 100 nM)”. Moreover, the Kd in assay [5] stood at 4.39 nM. The FOB in assay [6] is 3.4 fold over background; in the assay with mouse SIRPα on cells [7] it was 1.7 fold over background; with human SIRPα on cells [8], 2.7 fold over background; in assay [9], 1.2 fold over background.

One may read the Kd as the equilibrium constant for the complex coming apart. Read a high Kd as weaker binding.
